Laboratory results: paper PMC3690481

Columns and labels:
[1] = biological target: FlAsH-tagged Met1-diUb E16A^prox (UniProt P0CG48); assay: fluorescence anisotropy
[2] = biological target: Lys63-linked diUb (UniProt P0CG48); assay: fluorescence polarisation; FlAsH-tagged diUb fixed (10 μl of 100 nM plus 10 μl protein), OTULIN C129A variants serially diluted; 20 mM Tris pH 7.4, 100 mM NaCl, 5 mM β-mercaptoethanol, 0.1 mg/ml BSA; one-site binding model; triplicate

Kd [1] | Kd [2] | Substance
0.117 µM |  | m1; m3 OTULIN:N341D; proximal Ub:E16A
 | 12 µM | OTULIN (1–352) C129A (from UniProt Q96BN8 1-352) (enzyme)
